The target in experiment [1] is T1, proline rich domain of RGS9-2, amino acids 460-672 of human RGS9 (bait, plasmid pAS1-RGS9CT) (human, UniProt O75916 463-674).
T1 sequence: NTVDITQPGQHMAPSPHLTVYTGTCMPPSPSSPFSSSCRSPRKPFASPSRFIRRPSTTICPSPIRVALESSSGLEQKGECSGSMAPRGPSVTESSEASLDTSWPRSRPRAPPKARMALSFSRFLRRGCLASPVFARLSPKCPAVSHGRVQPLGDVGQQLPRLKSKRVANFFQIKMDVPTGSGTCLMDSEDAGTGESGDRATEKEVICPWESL
Put plainly: yeast two-hybrid screen of a human fetal brain library. An excerpt:
(§1) To identify interactors of the proline rich domain of RGS9, amino acids 460-672 of human RGS9 (FIG. 1A), was used as “bait” to screen a pretransformed human fetal brain library (Clontech). The RGS9-2 cDNA used was cloned by PCR from a human brain cDNA library using the primers 5′ primer: […], 3′ primer: […]. The DNA encoding amino acids 460-672 of RGS9-2, was amplified by PCR using the primer sequences 5′ […] and 3′ […] and ligated into the NdeI and BamH 1 sites of pAS1 (Clontech). The pAS1-RGS9CT plasmid was used to transform the yeast strain PJ69-2A (Clontech) using lithium acetate. The library was screened using a yeast mating protocol by incubating the library (MATα) with the bait strain ([…]) overnight at 30° C. according to the manufacturer's protocols. The mating mixture was plated on SD/-His/-Leu/-Trp and incubated at 30° C. until colonies appeared. Colonies were picked and miniprep DNA prepared. The insert in the library plasmid was amplified using the LD-Insert Screening amplimer set of primers (Clontech) and the amplicon sequenced on an ABI 3700 capillary sequencer. The sequences obtained were used as queries against the GENBANK database using BLAST. The 6 most common hits were selected for further study and were replated on SD/-His/-Leu/-Trp containing 0-40 mM […]. […]

Experiment [2] addresses T1, proline rich domain of RGS9-2, amino …. Put plainly: yeast two-hybrid assay.
Excerpt: as §1

B1: evectin clone discovered in the yeast two-hybrid screen (amino acids 101-190) (other)
chain: KTALLEANSTPVRVYSPYQDYYEVVPPNAHEATYVRSYYGPPYAGPGVTHVIVREDPCYSAGAPLAMGMLAGAATGAALGSLMWSPCWF
notes: Prey clone from the pretransformed human fetal brain library (Clontech); also called latter half of the evectin protein
Consider B1, for which, in experiment [1], the binding result is listed as “binds”.

B2: EVT ΔC54 (C terminal deletion mutant of evectin) (other)
chain: MALVRGGWLWRQSSILRRWKRNWFALWLDGTLGYYHDETAQDEEDRVLIHFNVRDIKIGPECHDVQPPEGRSRDGLLTVNLREGGRLHLCAETKDDALAWKTALLEANSTPVRVYSPYQDYYEVVPPNAHEATYVR
With B2, the binding result in experiment [2] is “binds”.

(Values after patent publication US20030166850A1 (Pfizer, published 2003).)
